In patent publication EP4703383A1 (Shenzhen Genuine Biomedical Technology Co., Ltd, dated 2026):

What was measured:
[1] = molecular target: T1, extracellular segment of human PRLR protein with avi-(his)6 tag (hPRLR-ECD-avi-his) (human, UniProt P16471 25-234); assay: BLI (Octet), antibody on Protein A sensor, monomeric PRLR ECD in solution, 1:1 fit
T1 construct: The assays say only 'monomeric human PRLR extracellular domain / ECD'; also called human PRLR extracellular domain; monomeric PRLR ECD
T1 sequence: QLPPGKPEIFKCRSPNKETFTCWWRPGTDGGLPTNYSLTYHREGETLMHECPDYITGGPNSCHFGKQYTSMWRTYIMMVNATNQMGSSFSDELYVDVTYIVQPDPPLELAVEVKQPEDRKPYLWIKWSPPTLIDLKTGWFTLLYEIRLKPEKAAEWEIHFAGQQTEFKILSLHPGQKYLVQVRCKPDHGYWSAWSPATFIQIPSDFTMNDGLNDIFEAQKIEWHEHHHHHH

[2] = molecular target: T1, extracellular segment of human PRLR …; assay: ELISA, coated antigen 1 ug/mL, antibody 10 ug/mL
[3] = molecular target: T2, recombinant mesothelin protein with the same tag; assay: ELISA, coated antigen 1 ug/mL, antibody 10 ug/mL
T2 construct: Control antigen of the species-specific ELISA; also called Control protein

Kd [1] | koff [1] | kon [1] | absorbance at 450nm [2] | absorbance at 450nm [3] | Binder
2.7 nM | 0.00033 s⁻¹ | 122000 M⁻¹ s⁻¹ | 2.24 | 0.091 | P-PR-C12H (antibody, V domains shown, also called Antibody No. 7) VH: QVQLQQPGSELVRPGASVKLSCKASGFTFATYWVHWVKQRPGQGLEWIGNISPGSVSTNYDEKFKSKASLTVDTFSNTAYMQLSSLTSEDSAVYYCIRHSGNYFNAMDYWGQGTTLTVSS VL: DIVMTQAAPSVLVTPGESVSISCRSSKSLLHSNGNTYLYWFLQRPGQSPQLVIYRMSNLASGVPDRFSGSGSGTAFTLRISRVEAEDVGVYYCMQHLEYPFTFGAGTKLELK
 |  |  | 2.45 | 0.069 | P-PR-H07W (antibody, V domains shown, also called Antibody No. 13) VH: QVQLQQPGSELVRPGASVKLSCKASGFTFATYWVHWVKQRPGQGLEWIGNISPGSVSTNYDEKFKSKASLTVDTFSNTAYMQLSSLTSEDSAVYYCIRHSGNYFNAMDYWGQGTTLTVSS VL: DIVMTQAAPSVPVTPGESVSISCRSSKSLLHSNGNTYLYWFLQRPGQSPQLLIYRMSNLASGVPDRFSGSGSGTAFTLRISRVEAEDVGVYYCMQHLEYPFTFGGGTKLEIK
 |  |  | 2.32 | 0.054 | P-PR-H11W (antibody, V domains shown, also called Antibody No. 14) VH: QVQLQQPGSELVRPGASVKLSCKASGFTFTTFWVHWVKQRPGQGLEWIGNISPGSTSTNYNEKFKNKASLTVDTFSNTAYMQLSSLTSEDSAVYYCIRHSGNYFNAMDYWGQGTSVTVSS VL: DIVMTQAAPSVPVTPGESVSISCRSSKSLLHSNGNTYLYWFLQRPGQSPQLLIYRMSNLASGVPDRFSGSGSGTAFTLRISRVEAEDVGVYYCMQHLEYPFTFGGGTKLEIK
 |  |  |  | 0.065 | P-PR-D04H (antibody, V domains shown, also called Antibody No. 9) VH: QVQLQQPGSELVRPGASVKLSCKASGYTFTSYWMHWVKQRPGQGLEWIGNIYPGSGSTNYDEKFKSKATLTVDTSSSTAYMQLSSLTSEDSAVYYCTRGNYRYYFDYWGQGTTLTVSS VL: not shown
 |  |  |  | 0.07 | P-PR-G02W (antibody, V domains shown, also called Antibody No. 11) VH: QVQLQQPGSELVRPGASVKLSCKASGFTFTTYWVHWVKQRPGQGLEWIGNISPGSGSTNYDEKFKSKASLTVDTFSNTAYMQLSSLTSEDSAVYYCIRHSGNYFNAMDYWGQGTTLTVSS VL: DIVMTQAAPSVPVTPGESVSISCRSSKSLLHSNGNTYLYWFLQRPGQSPQLLIYRMSNLASGVPDRFSGSGSGTAFTLRISRVEAEDVGVYYCMQHLEYPLTFGAGTKLELK
 |  |  |  | 0.064 | P-PR-H04W (antibody, V domains shown, also called Antibody No. 12) VH: QVQLQQPGSELVRPGASVKLSCKASGFTFTTYWVHWVKQRPGQGLEWIGNISPGSGSTNYDEKFKSKASLTVDTFSNTAYMQLSSLTSEDSAVYYCIRHSGNYFNAMDYWGQGTSVTVSS VL: DIVMTQAAPSVPVTPGESVSISCRSSKSLLHSNGNTYLYWFLQRPGQSPQLLIYRMSNLASGVPDRFSGSGSGTAFTLRISRVEAEDVGVYYCMQHLEYPFTFGSGTKLEIK

Second part, the binder before the results:

Binder | Kd [1] | koff [1] | kon [1] | absorbance at 450nm [2] | absorbance at 450nm [3]
P-PR-C08H (antibody, V domains shown, also called Antibody No. 6) VH: QVQLQQPGSELVRPGASVKLSCKASGFTFTTYWVHWVKQRPGQGLEWIGNISPGSGSTNYDEKFKSKASLTVDTFSNTAYMQLSSLTSEDSAVYYCIRHSGNYFNAMDYWGQGTTVTVSS VL: DIVMTQAAPSVPVTPGESVSISCRSSKSLLHSNGNTYLYWFLQRPGQSPQLLIYRMSNLASGVPDRFSGSGSGTAFTLRISRVEAEDVGVYYCMQHLEYPLTFGAGTKLELK | 0.00177 nM | 2.44e-07 s⁻¹ | 138000 M⁻¹ s⁻¹ | 2.2 | 0.065
P-PR-B09W (antibody, V domains shown, also called Antibody No. 10) VH: QVQLQQPGSELVRPGASVKLSCKASGFTFTTFWVHWVKQRPGQGLEWIGNISPGGTSTNYDEKFKSKASLTVDTFSNTAYMQLSSLTSEDSAVYYCIRHSGNYFNAMDYWGQGTSVTVSS VL: DIVMTQAAPSVPVTPGESVSISCRSSKSLLHSNGNTYLYWFLQRPGQSPQLLIYRMSNLASGVPDRFSGSGSGTAFTLRISRVEAEDVGVYYCMQHLEYPLTFGAGTKLELK | 1.53 nM | 0.000287 s⁻¹ | 187000 M⁻¹ s⁻¹ | 2.32 | 0.102
P-PR-C02H (antibody, V domains shown, also called Antibody No. 1) VH: QVQLQQPGSELVRPGASVRLSCKASGFTFTTYWVHWVKQRPGQGLEWIGNISPGSGSTNYDEKFKSKASLTVDTFSNTAYMQLSSLTSEDSAVYYCIRHSGNYFNAMDYWGQGTSVTVSS VL: DIVMTQATPSVPVAPGESVSISCRSSKSLLHTNGYTYLYWFLQRPGQSPQLLIYRMSNLASGVPDRFSGSGSGTAFTLRISRVEAEDVGVYYCMQHLEYPLTFGAGTKLELK | 0.0016 nM | 2.44e-07 s⁻¹ | 153000 M⁻¹ s⁻¹ | 2.14 | 0.098
P-PR-C04H (antibody, V domains shown, also called Antibody No. 2) VH: QVQLQQPGSELVRPGASVKLSCKASGFTFTTYWVHWVKQRPGQGLEWIGNISPGGGSTNYDEKFKSKASLTVDTFSNTAYMQLSSLTSEDSAVYYCIRHSGNYFNAMDYWGQGTTVTVSS VL: DIVMTQAAPSVPVTPGESVSISCRSSKSLLHSNGNTYLYWFLQRPGQSPQLLIYRMSNLASGVPDRFSGSGSGTAFTLRISRVEAEDVGVYYCMQHLEYPFTFGSGTKLEIK |  |  |  | 2.15 | 0.09
P-PR-C05H (antibody, V domains shown, also called Antibody No. 3) VH: QVQLQQPGSELVRPGASVKLSCKASGFTFTTFWVHWVKQRPGQGLEWIGNISPGSTSTNYNEKFKNKASLTVDTFSNTAYMQLSSLTSEDSAVYYCIRHSGNYFNAMDYWGQGTSVTVSS VL: DIVMTQAAPSVPVTPGESVSISCRSSKSLLHSNGNTYLYWFLQRPGQSPQLLIYRMSNLASGVPDRFSGSGSGTAFTLRISRVEAEDVGIYYCMQHLEYPLTFGAGTKLELK | < 0.001 nM | 1.3e-07 s⁻¹ | 209000 M⁻¹ s⁻¹ | 2.14 | 0.116
P-PR-C06H (antibody, V domains shown, also called Antibody No. 4) VH: QVQLQQPGSELVRPGASVKLSCKASGFTFTTYWVHWVKQRPGQGLEWIGNISPGSGSTNYDEKFKSKASLTVDTFSNTAYMQLSSLTSEDSAVYYCIRHSGNYFNAMDYWGQGTSVTVSS VL: DIVMTQAAPSVFVTPGESVSISCRSSKSLLHSNGNTYLYWFLQRPGQSPQLLIYQMSNRASGVPDRLSGSGSGTAFTLRISRVEAEDVGVYYCMQHLEYPFTFGGGTKLEIK | 2.71 nM | 0.000663 s⁻¹ | 244000 M⁻¹ s⁻¹ | 2.1 | 0.084
P-PR-C04W (antibody, V domains shown, also called Antibody No. 15) VH: QVQLQQPGSELVRPGASVKLSCKASGFTFTTYWVHWVKQRPGQGLEWIGNISPGSGSTNYDEKFKSKASLTVDTFSNTAYMQLSSLTSEDSAVYYCIRHSGNYFNAMDYWGQGTTVTVSS VL: DIVMTQAAPSVPVTPGESVSISCRSSKSLLHSNGNTYLYWFLQRPGQSPQLLIYRMSNLASGVPDRFSGSGSGTAFTLRISRVEAEDVGVYYCMQHLEYPLTFGAGTKLELK |  |  |  |  | 0.095
H-PR-B03 (antibody, V domains shown, also called Antibody No. 17) VH: QVQLKESGPGLVAPSQSLSITCTVSGFSLTGFGVNWFRQPPGRGLEWLGMIWGDGSTDYNSALKSRLSISKDNSKSQVFLKMNSLQTDDTARYYCARVLYYYGGNSFAYWGQGTLVTVSA VL: DVLMTQTPLSLPVSLGDQASISCRSSQSIVHSNGNTYLEWYLQKPGQSPKLLIYKVSSRFSGVPDRFSGSGSGTDFTLKISRVEAEDLGVYYCFQGSHVPYTFGGGTKLEIK |  |  |  |  | 0.067
H-PR-B06 (antibody, V domains shown, also called Antibody No. 18) VH: DVKLVESGGGLVKPGGSLKLACAASGFTFSSYTMSWVRQTPEKRLEWVATISSGGSYTYYPDSVKGRFTISRDNAKNTLYLQLSSLKSEDTAMYYCTRDRYYSTTPDWYFDVWGAGTTVTVSS VL: DIVLTQSPATLSVTPGDSVSLSCRATQIIFNNLHWYQQKSHESPRLLITYTSQSISGIPSRFSGSGSGTDFTLTINSVETEDFGMYFCQQSNTWPRTFGGGTKLEIK |  |  |  |  | 0.054
HP-PR02E11 (antibody, V domains shown, also called Antibody No. 19) VH: QVQLQQSGPGLVAPSQSLSITCTVSGFSLTSYGVNWVRQPPGKGLEWLGIIGAGGSTNYNSALMSRLSISKDNSKSQVFLKMNSLQTDDTAMYYCARSLYYYGSSSFAYWGQGTLVTVSA VL: DIVMTQTPLSLPVSLGDQASISCRSSQSIVHSNGNTYLEWYLQKPGQSPKLLIYKVSNRFSGVPDRFSGSGSGTDFTLKISRVEAEDLGVYYCFQGSHVPWTFGGGTKLELK |  |  |  |  | 0.111
HP-PR01D12 (antibody, V domains shown, also called Antibody No. 20) VH: EVMLVESGGGLVQPGGSRKLSCAASGFTFSSFGMNWVRQAPEKGLEWVAYISSGSSIIYYADTVKGRFTISRDNPKNTLFLQMTSLRSEDTAMYYCTRFYGYIPFDYWGQGTTLTVSS VL: DIVMTQSPAIMSASPGEKVTMTCSASSSLIYMHWYQQKSSTSPKLWIYDTSKLASGVPGRFSGSGSGNSYSLTTSSMEAEDVATYYCFQGSGYPLTFGGGTKLEIK |  |  |  |  | 0.09
HP-PR01C02 (antibody, V domains shown, also called Antibody No. 22) VH: DVHLVESGPGLVKPSQSLSLTCTVTGYSITSDYAWNWIRQFPGNKLEWMGYISYSGSTGYSPSLKSRVSITRDTSKNQFFLQLNSVTTEDTATYFCARNNWAFDFWGQGTTLTVSS VL: DIVLTQSPAIMSASPGEKVTMTCSASSSVNYMHWYQQKSGTSPKRWIYDTSKLASGVPARFSGSGSGTSYSLTISSMEAEDAATYYCQQWSSNPLTFGAGTKLELK |  |  |  |  | 0.072
